Data taken from article doi:10.1101/655696.

Key:
[1] = target: pre-30S particles from the ΔrbfA strain (BX41) (E. coli (endogenous in BX41)); assay: ultrafiltration assay
[2] = target: mature 30S ribosomal subunit (MRE600) (E. coli (endogenous in MRE600)) (UniProt P0AG67); assay: ultrafiltration assay
[3] = target: mature 30S ribosomal subunit (MRE600) (E. coli (endogenous in MRE600)) (UniProt P0AG67); assay: co-sedimentation + other: ultrafiltration assay
[4] = target: mature 30S ribosomal subunit (MRE600) (E. coli (endogenous in MRE600)) (UniProt P0AG67); assay: co-sedimentation

Cy3-IF3 (from UniProt P0A707 1-180) (natural protein)
average fold change in bound IF3 over background [1]: 1.9 fold | average fold change in bound IF3 over background [2]: 2.2 fold

Cy5-RbfA (ribosome binding factor A labelled with Cy5 at position 2) (from UniProt P0A7G2 1-133) (natural protein)
t1/2 of the complex [3]: > 30 min | half-life of the complex [1]: > 60 min

Initiation factor 3 (IF3), wild type (from UniProt P0A707 1-180) (natural protein)
decrease of Cy5-RbfA fluorescence in the pelleted fraction with 4 µM IF3 [4]: > 80%
